Reference: patent US20240301385, “DNA MODIFYING ENZYMES AND ACTIVE FRAGMENTS AND VARIANTS THEREOF AND METHODS OF USE” (LIFEEDIT THERAPEUTICS, INC., published 2024)

What was measured:
APG30126-L32-nAPG07433.1 = biological target: T1, APG30126-L32-nAPG07433.1 (synthetic); experiment: cell_activity; HEK293FT; PAM SEQ 152; conditions: tags: SV40 NLS, 3xFLAG N-term; nucleoplasmin NLS C-term
T1 chain: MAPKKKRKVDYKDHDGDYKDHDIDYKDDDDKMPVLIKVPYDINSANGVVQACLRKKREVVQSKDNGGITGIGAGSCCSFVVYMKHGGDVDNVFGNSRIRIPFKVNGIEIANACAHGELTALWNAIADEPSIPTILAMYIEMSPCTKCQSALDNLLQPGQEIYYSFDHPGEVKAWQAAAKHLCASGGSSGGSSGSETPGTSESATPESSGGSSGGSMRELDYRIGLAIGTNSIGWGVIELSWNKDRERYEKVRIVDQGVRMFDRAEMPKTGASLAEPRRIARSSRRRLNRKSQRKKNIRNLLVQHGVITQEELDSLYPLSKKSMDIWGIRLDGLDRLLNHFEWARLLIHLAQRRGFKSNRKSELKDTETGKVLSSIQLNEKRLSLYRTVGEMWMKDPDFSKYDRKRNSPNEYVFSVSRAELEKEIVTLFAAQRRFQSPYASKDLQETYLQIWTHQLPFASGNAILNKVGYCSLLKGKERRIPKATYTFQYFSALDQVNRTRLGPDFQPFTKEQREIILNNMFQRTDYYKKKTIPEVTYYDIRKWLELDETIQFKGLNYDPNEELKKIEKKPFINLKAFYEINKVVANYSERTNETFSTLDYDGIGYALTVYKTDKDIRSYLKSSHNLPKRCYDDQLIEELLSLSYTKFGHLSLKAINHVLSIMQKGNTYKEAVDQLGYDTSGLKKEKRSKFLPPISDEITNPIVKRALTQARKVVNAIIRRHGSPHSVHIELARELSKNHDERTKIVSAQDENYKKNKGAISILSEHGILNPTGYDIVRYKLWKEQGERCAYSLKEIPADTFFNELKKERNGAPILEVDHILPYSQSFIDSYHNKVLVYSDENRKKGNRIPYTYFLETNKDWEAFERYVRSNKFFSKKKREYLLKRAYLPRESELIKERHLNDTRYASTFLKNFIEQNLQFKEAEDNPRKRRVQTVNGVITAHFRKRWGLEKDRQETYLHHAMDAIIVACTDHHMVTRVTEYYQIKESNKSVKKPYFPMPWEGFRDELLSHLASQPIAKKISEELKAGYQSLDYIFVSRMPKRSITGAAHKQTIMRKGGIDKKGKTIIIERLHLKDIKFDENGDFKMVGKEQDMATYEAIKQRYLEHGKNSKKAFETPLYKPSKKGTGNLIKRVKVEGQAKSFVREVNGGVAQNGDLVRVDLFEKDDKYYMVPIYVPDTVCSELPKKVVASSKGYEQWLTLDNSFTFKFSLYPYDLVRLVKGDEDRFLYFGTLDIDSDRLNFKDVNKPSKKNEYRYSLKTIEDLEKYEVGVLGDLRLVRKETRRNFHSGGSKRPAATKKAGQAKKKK
In short: (§1)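 Editing read out by next-generation sequencing (MiSeq 2×250) of PCR amplicons spanning the target site, analysed for INDELs or % cytosine conversion per position (position 1 nearest PAM).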

APG30127-L32-nAPG07433.1 = biological target: T2, APG30127-L32-nAPG07433.1 (synthetic); experiment: cell_activity; HEK293FT; PAM SEQ 152; conditions: tags: SV40 NLS, 3xFLAG N-term; nucleoplasmin NLS C-term
T2 chain: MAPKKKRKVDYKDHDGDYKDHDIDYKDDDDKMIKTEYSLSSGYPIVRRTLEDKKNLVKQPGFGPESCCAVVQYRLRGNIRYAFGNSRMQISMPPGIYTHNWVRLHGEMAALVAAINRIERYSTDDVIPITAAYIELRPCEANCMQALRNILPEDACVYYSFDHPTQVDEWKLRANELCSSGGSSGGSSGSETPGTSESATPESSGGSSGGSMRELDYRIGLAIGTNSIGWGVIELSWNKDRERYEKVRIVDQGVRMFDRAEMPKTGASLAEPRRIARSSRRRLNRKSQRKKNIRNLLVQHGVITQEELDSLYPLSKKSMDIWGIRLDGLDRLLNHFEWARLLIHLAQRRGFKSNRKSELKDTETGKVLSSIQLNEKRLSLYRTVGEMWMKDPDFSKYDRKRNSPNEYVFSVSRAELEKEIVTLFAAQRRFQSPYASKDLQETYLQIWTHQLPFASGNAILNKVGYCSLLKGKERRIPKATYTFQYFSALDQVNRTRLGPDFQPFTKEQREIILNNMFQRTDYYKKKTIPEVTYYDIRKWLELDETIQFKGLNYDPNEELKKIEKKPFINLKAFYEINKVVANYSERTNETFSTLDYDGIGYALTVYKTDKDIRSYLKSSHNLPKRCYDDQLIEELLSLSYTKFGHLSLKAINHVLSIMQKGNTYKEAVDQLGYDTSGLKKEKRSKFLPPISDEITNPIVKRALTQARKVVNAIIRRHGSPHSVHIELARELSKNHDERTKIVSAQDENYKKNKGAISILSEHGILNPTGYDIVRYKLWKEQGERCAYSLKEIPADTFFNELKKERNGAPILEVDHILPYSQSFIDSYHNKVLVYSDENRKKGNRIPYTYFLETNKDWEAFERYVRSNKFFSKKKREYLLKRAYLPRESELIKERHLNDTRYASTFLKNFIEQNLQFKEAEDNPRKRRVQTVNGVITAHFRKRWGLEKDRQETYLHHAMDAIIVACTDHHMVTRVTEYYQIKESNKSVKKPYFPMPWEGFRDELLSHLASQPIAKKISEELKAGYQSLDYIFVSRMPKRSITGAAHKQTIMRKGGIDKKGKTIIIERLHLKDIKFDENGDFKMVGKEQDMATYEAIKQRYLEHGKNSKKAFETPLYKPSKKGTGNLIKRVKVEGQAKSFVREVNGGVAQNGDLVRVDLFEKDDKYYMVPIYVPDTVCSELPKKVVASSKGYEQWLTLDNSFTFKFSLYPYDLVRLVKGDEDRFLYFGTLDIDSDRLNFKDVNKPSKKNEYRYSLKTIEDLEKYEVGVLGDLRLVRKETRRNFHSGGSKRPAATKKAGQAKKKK
In short: as §1

B1: SGN000930 sgRNA ; SGN000930 target (ssRNA ; dsDNA)
RNA: GAACAACUCAAAUGGAAAUGAAUAUGUCAUAGUUCCAUGAAAGCCAAAAGUGGCUUUGAUGUUUCUAUGAUAAGGGUUUCGGCCCGUGGCGUCGGGGAUCGCCUGCCCAUUCCGAUGGGCUUCUCCCCAUUUAUU
DNA 1: GAACAACTCAAATGGAAATGAATAT
DNA 2: ATATTCATTTCCATTTGAGTTGTTC
With B1 the activity (APG30126-L32-nAPG07433.1) was 1.38 % mutated reads.

B2: SGN000194 sgRNA ; SGN000194 target (ssRNA ; dsDNA)
RNA: GCCGCACAGCAUUCAGGUCGGUCAUAGUUCCAUUAAAGCCAAAAGUGGCUUUGAUGUUUCUAUGAUAAGGGUUUCGACCCGUGGCGUCGGGGAUCGCCUGCCCAUUGAAAUGGGCUUCUCCCCAUUUAUU
DNA 1: GCCGCACAGCATTCAGGTCG
DNA 2: CGACCTGAATGCTGTGCGGC
In the case of B2, the activity (APG30127-L32-nAPG07433.1) is reported as 9.53 % mutated reads.
